Experimental data: patent publication US20220403048A1 (CANCER RESEARCH TECHNOLOGY, published 2022)
Like-named read-outs stand apart in the source and are kept apart here.

T1: biotinylated recombinant human trimeric ARG1 enzyme (Avi-huARG1-His10) (human, UniProt P05089 1-322, biotinylated in HTRF and streptavidin BLI assays)
T1 construct: also called Human ARG1; recombinant ARG1
T1 sequence: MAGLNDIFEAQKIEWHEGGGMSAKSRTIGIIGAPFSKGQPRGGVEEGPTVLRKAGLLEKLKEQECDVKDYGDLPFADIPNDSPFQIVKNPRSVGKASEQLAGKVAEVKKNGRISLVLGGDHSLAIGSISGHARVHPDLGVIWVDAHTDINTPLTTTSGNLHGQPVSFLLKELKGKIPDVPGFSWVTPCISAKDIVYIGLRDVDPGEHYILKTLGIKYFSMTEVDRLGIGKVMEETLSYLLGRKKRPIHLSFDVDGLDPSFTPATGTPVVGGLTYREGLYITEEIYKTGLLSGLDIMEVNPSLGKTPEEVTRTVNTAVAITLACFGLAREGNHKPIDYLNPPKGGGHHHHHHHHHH

T2: biotinylated recombinant human trimeric ARG2 enzyme (Avi-huARG2-His10) (human, UniProt P78540 23-354, biotinylated)
T2 construct: also called avi-Arg2-His10; bio-ARG2
T2 chain: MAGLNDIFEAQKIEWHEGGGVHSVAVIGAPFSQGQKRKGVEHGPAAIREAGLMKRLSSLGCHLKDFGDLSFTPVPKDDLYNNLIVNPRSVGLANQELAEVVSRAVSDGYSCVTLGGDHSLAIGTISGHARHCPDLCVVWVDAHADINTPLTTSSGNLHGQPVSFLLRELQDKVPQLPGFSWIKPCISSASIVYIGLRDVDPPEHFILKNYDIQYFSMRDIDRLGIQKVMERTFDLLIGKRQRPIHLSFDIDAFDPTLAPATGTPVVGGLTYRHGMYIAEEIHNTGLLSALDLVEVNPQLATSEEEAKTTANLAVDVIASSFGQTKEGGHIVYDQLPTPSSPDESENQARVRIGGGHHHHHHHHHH

T3: biotinylated recombinant cynomolgus monkey trimeric ARG2 enzyme (Avi-cynoARG2-His10) (cynomolgus monkey, UniProt P78540 23-354 (human entry), biotinylated)
T3 construct: also called cynomolgus ARG2
T3 chain: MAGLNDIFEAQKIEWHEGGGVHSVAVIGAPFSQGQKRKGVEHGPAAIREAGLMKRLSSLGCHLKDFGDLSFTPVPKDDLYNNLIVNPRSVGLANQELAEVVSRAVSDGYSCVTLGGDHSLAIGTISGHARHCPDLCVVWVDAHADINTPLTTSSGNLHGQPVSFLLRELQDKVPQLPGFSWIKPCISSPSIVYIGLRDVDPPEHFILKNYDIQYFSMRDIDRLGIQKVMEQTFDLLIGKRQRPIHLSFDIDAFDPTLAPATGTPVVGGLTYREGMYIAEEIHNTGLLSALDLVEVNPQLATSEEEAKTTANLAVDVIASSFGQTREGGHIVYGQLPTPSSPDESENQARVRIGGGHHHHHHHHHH


Key:
[1] = biological target: T1, biotinylated recombinant human trimeric …; assay: BLI (OctetRED), His-tagged ligand on anti-His surface
Description: The binding of affinity-matured antibodies to human ARG1 was also tested on the OctetRED system using a screening assay which stably captures […] as the ligand on an anti-His surface. The Fabs were typically tested in an analyte range of 1.8 to 120 nM, with an association time of 5 minutes and a dissociation time of 10 minutes. Sensors were regenerated using 10 mM glycine pH 1.5 after each cycle.

[2] = biological target: T2, biotinylated recombinant human trimeric …; assay: BLI (OctetRED), biotinylated ARG2 on streptavidin, Fab as analyte
Description: (§1) An Octet Kinetics Buffer (PBS containing 0.01% BSA and 0.002% Tween20) is typically used as the diluent buffer for the analyte samples and as the flow buffer during the dissociation phase. The experimental data is recorded over time as shift in interference pattern (nm) over time, which is directly proportional to the optical thickness at the biosensor tip, which in turn is an approximate measure of the mass of analyte bound. The proprietary Octet Data Analysis software package can then be used to process data and fit binding models to the data sets. Returned association (kₐ, M⁻¹ s⁻¹) and dissociation (kd, s⁻¹) rate constants allow calculation of dissociation (KD, M) affinity constants.
(§2) Typically, an analyte titration range of 1.8 to 120 nM was used.

[3] = biological target: T3, biotinylated recombinant cynomolgus …; assay: BLI (OctetRED), biotinylated cyno ARG2 on streptavidin, Fab as analyte
Description: as §1, §2

[4] = biological target: T1, biotinylated recombinant human trimeric …; assay: BLI (OctetRED), His-tagged ligand on anti-His surface; remark: listed apart in the source
[5] = biological target: T2, biotinylated recombinant human trimeric …; assay: BLI (OctetRED) extended assay, bio-ARG2 on streptavidin, Fab as analyte, 1:1 fit
Description: The affinities of the second-generation antibodies to human ARG2 were measured on the OctetRED system. A screening assay which stably captures His-tagged ARG2 as the ligand on an anti-His surface was utilised to screen the second-generation candidates as Fabs at an analyte range of 1.8 to 120 nM, with an association time of 5 minutes and a dissociation time of 10 minutes. Sensors were regenerated using 10 mM glycine pH 1.5 after each cycle. Based on this assay, six candidates with estimated affinities in the sub-nanomolar range were identified, and they were further profiled using an extended assay which is more suitable for antibodies of high affinities. In the extended assay, the association and dissociation times were extended to 10 and 40 minutes respectively, using a lower Fab analyte titration range of 0.47 to 30 nM, on a streptavidin surface which captures bio-ARG2 as the ligand. The sensorgrams were reference subtracted and fitted to the 1:1 binding model to estimate their binding affinities using the Octet analysis software.

Row | binding result [1] | Kd [2] | koff [2] | kon [2] | Kd [3] | koff [3] | kon [3] | binding result [4] | Kd [5] | koff [5] | kon [5] | Binder
1 | no binding (tested: 1.8 to 120 nM Fab) | 1.3 nM | 0.000351 s⁻¹ | 271000 M⁻¹ s⁻¹ | 0.953 nM | 0.000296 s⁻¹ | 310000 M⁻¹ s⁻¹ | – | – | – | – | C0021061 Fab (Fab, V domains shown, Human Fab) VH: EVQLLESGGGLVQPGGSLRLSCAASGFTFSSYAMSWVRQAPGKGLEWVSAKPTDAGSTYYADSVKGRFTISRDNSKNTLYLQMNSLRAEDTAVYYCARLRADLGLYMDLWGRGTLVTVSS VL: QSVLTQPPSVSAAPGQKVTISCSGSSSNIGNHYVSWYQQLPGTAPKLLIYNTVYPKSGIPDRFSGSKSGTSATLGITGLQTGDEADYYCGTWDSSLSALVFGGGTKLTVL
2 | no binding (tested: 1.8 to 120 nM Fab) | 2.53 nM | 0.000674 s⁻¹ | 266000 M⁻¹ s⁻¹ | 1.77 nM | 0.000771 s⁻¹ | 437000 M⁻¹ s⁻¹ | – | – | – | – | C0021128 Fab (Fab, V domains shown, Human Fab) VH: EVQLLESGGGLVQPGGSLRLSCAASGFTFQYEVAAWVRQAPGKGLEWVSAISGPIPKGYYADSVKGRFTISRDNSKNTLYLQMNSLRAEDTAVYYCARLRADLGLYMDLWGRGTLVTVSS VL: QSVLTQPPSVSAAPGQKVTISCSGSSSNIGNHYVSWYQQLPGTAPKLLIYDNAIESSGIPDRFSGSKSGTSATLGITGLQTGDGADYYCGTWDSNLSALVFGGGTKLTVL
3 | no binding (tested: 1.8 to 120 nM Fab) | 4.41 nM | 0.000871 s⁻¹ | 198000 M⁻¹ s⁻¹ | 2.63 nM | 0.000724 s⁻¹ | 275000 M⁻¹ s⁻¹ | – | – | – | – | C0021139 Fab (Fab, V domains shown, Human Fab; also called LO C0021139 Fab) VH: EVQLLESGGGLVQPGGSLRLSCAASGFTFQYDYQVWVRQAPGKGLEWVSAISGSGGSTYYADSVKGRFTISRDNSKNTLYLQMNSLRAEDTAVYYCARLRADLGLYMDLWGRGTLVTVSS VL: QSVLTQPPSVSAAPGQKVTISCSGSSSNIGNHYVSWYQQLPGTAPKLLIYDNSERTSGIPDRFSGSKSGTSATLGITGLQTGDEADYYCGTWDELTSNLVFGGGTKLTVL
4 | no binding (tested: 1.8 to 120 nM Fab) | 2.73 nM | 0.00112 s⁻¹ | 412000 M⁻¹ s⁻¹ | 1.66 nM | 0.00117 s⁻¹ | 706000 M⁻¹ s⁻¹ | – | – | – | – | C0021022 Fab (Fab, V domains shown, Human Fab) VH: EVQLLESGGGLVQPGGSLRLSCAASGFTFSSYAMSWVRQAPGKGPEWVSAISGFSPYYADSVKGRFTISRDNSKNTLYLQMNSLRAEDTAVYYCARLRADLGLYMDLWGRGTLVTVSS VL: QSVLTQPPSVSAAPGQKVTISCSGSSSNIGNHYVSWYQQLPGTAPKLLIYDNSERPSGIPDRFSGSKSGTSATLGITGLQTGDEADYYCGTWDSSLSALVFGGGTKLTVL
5 | – | – | – | – | – | – | – | no binding (tested: up to 120 nM Fab) | 0.358 nM | 5.67e-05 s⁻¹ | 159000 M⁻¹ s⁻¹ | C0021155 Fab (Fab, V domains shown, Human Fab) VH: EVQLLESGGGLVQPGGSLRLSCEASGFTFRYDYHVWVRQAPGKGLEWVSAISGSGGSTYYADPVKGRFTISRDNSKNTLYLQMNSLRAEDTAVYYCARLRADLGLYMDLWGRGTLVTVSS VL: RSVLTQPPSVSAAPGQKVTISCSGSSSNIGNHYVSWYQQLPGTAPKLLIYDTTVLSSGIPDRFSGSKSGTSATLGITGLQTGDEADYYCGTWDELTSNLVFGGGTRLTVL
6 | no binding (tested: 1.8 to 120 nM Fab) | 1.62 nM | 0.000665 s⁻¹ | 409000 M⁻¹ s⁻¹ | 1.27 nM | 0.000782 s⁻¹ | 617000 M⁻¹ s⁻¹ | – | – | – | – | C0021065 Fab (Fab, V domains shown, Human Fab) VH: EVQLLESGGGLVQPGGSLRLSCAASGFTFSSYAMSWVRQAPGKGPEWVSAISGFSPYYADSVKGRFTISRDNSRNTLYLQMNSLRAEDTAVYYCARLRADLGLYMDLWGRGTLVTVSS VL: QSVLTQPPSVSAAPGQKVTISCSGSSSNIGNHYVSWYQQLPGTAPKLLIYDTDHMASGIPDRFSGSKSGTSATLGITGLQTGDEADYYCGTWDSSLSALVFGGGTKLTVL
7 | no binding (tested: 1.8 to 120 nM Fab) | 2.69 nM | 0.000755 s⁻¹ | 280000 M⁻¹ s⁻¹ | 2.05 nM | 0.000726 s⁻¹ | 354000 M⁻¹ s⁻¹ | – | – | – | – | C0021092 Fab (Fab, V domains shown, Human Fab) VH: EVQLLESGGGLVQPGGSLRLSCAASGFTFSRYAMSWVRQAPGKGLEWVSAHTHSPGSTYYADSVKGRFTISRDNSKNTLYLQMNSLRAEDTAVYYCARLRADLGLYMDLWGRGTLVTVSS VL: QSVLTQPPSVSAAPGQKVTISCSGSSSNIGNHYVSWYQQLPGTAPKLLIYNSVARPSGIPDRFSGSKSGTSATLGITGLQTGDEADYYCGTWDSSLSALVFGGGTKLTVL
8 | no binding (tested: 1.8 to 120 nM Fab) | 2.05 nM | 0.000449 s⁻¹ | 219000 M⁻¹ s⁻¹ | 1.67 nM | 0.000549 s⁻¹ | 328000 M⁻¹ s⁻¹ | – | – | – | – | C0021133 Fab (Fab, V domains shown, Human Fab) VH: EVQLLESGGGLVQPGGSLRLSCAASGFTFRYDHHVWVRQAPGKGLEWVSAISGSGGSTYYADSVKGRFTISRDNSKNTLYLQMNSLRAEDTAVYYCARLRADLGLYMDLWGRGTLVTVSS VL: QSVLTQPPSVSAAPGQKVTVSCSGSSSNIGNHYVSWYQQLPGTAPKLLIYDTTVLSSGIPDRFSGSKSGTSATLGITGLQTGDEADYYCGTWDELTSNLVFGGGTKLTVL
9 | – | – | – | – | – | – | – | no binding (tested: up to 120 nM Fab) | 0.338 nM | 6.59e-05 s⁻¹ | 195000 M⁻¹ s⁻¹ | C0021144 Fab (Fab, V domains shown, Human Fab) VH: EVQLLESGGGLVQPGGSLRLSCAASGFTFRYDYHVWVRQAPGKGLEWVSAISGSGGSTYYADSVKGRFTISRDNSKNTLYLQMNSLRAEDTAVYYCARLRADLGLYMDLWGRGTLVTVSS VL: QSVLTQPPSVSAAPGQKVTVSCSGSSSNIGNHHVSWYQQLPGTAPKLLIYDTTVLSSGVPDRFSGSKSGTSATLGITGLQTGDEADYYCGTWDELTSNLVFGGGTKLTVL
